Consider 3 molecules from publication PMC5457521 (Nature Communications, 2017).

Assay [1] addresses T1, DENV2 sE strain FGA02, wild type (recombinant E ectodomain) (Dengue virus 2, strain FGA-02 …, strain).
T1 construct: also called sE WT; DENV2 FGA02 WT
The assay can be described thus: ELISA; capture ELISA: mAb coated at 5 μg ml^−1 on MAXISORP plates; serial dilutions of Strep-tagged sE in solution; ALP-labelled Strep-Tactin. To be noted: one partner purified.

The target in assay [2] is T1, DENV2 sE strain FGA02, wild type …. Put plainly: SEC-MALS; mixture of 150 μg DENV2 FGA02 sE with 300 μg Fab, Superdex 200 10/300 GL, run in a similar manner as sE alone. To be noted: both partners purified. (In general: SEC sorts molecules by how far they enter the pores of the column.)

B1: anti-EDE2 mAb 747(4)A11, human IgG (antibody, V domains shown)
VH: EVQLVESGGGLVRPGGSLRLSCAASGFSYSNHWMHWVRQAPGKGLVWVSRINSDGSTRNYADFVKGRFTISRDNAENTLYLEMNSLTADDTAVYYCVRDGVRFYYDSTGYYPDSFFKYGMDVWGQGTTVTVSS
VL: QSVLTQPVSVSGSPGQSITISCTGTSSNADTYNLVSWYQQRPGKAPKLMIYEGTKRPSGVSNRFSASKSATAASLTISGLQPEDEADYYCCSYATSRTLVFGGGTKLTVV
On to B1, for which the binding result in assay [1] was “binds”.

B2: anti-EDE2 Fab A11 (Fab of human mAb 747(4)A11) (Fab, V domains shown)
VH: B1 VH
VL: B1 VL
Consider B2, for which the binding result in assay [2] is given as “binds”.

B3: anti-EDE2 mAb 747(4)B7, human IgG (antibody, V domains shown)
VH: EVQLVESGGGLVQPGGSLKLSCAASGFTFSSHWMHWVRQAPGKGLVWVSRTNSDGSSTSYADSVKGRFMISRDNSKNTVYLHMNGLRAEDTAVYFCARDGVRYYYDSTGYYPDNFFQYGLDVWGQGTTVTVSS
VL: QSALTQPASVSGSPGQSITISCTGISSDVETYNLVSWYEQHPGKAPKLIIYEASKRPSGVSNRFSGSKSGNTASLAISGLQAEDEADYYCCSYAGGKSLVFGGGTRLTVL
As to B3, the binding result in assay [1] is recorded as “binds”.
